Like-named read-outs stand apart in the source and are kept apart here.
Assays:
[1] = 0.146 mg CNP-38 eq/kg
Method: (§1) Plasma total CNP-38 concentrations (conjugated and released CNP-38) were determined by quantification of the N-terminal signature peptide (sequence: […]) and C-terminal signature peptide (sequence: […]) after tryptic digestion.
(§2) LC-MS analysis was carried out by using an Agilent 1290 UPLC coupled to an Agilent 6550 iFunnel Q-TOF mass spectrometer via an ESI probe. Chromatography was performed on a Waters Acquity BEH300 C18 analytical column (50×2.1 mm I.D., 1.7 μm particle size) with pre-filter at a flow rate of 0.25 mL/min (T=25° C.). Water (UPLC grade) containing 0.2% formic acid (v/v) was used as mobile phase A and acetonitrile (UPLC grade) with 0.2% formic acid as mobile phase B. The gradient system comprised a short isocratic step at the initial parameters of 0.1% B for 3.0 min followed by a linear increase from 0.1% B to 16% B in 17 min. Mass analysis was performed in the single ion monitoring (SIM) mode, monitoring the ions m/z 482.75 [M+2H]^2+ (N-terminal) and m/z 824.36 [M+H]^1+ (C-terminal). As internal standard deuterated CNP-38 peptide was used.
(§3) Calibration standards of CNP-38 conjugate in blank plasma were prepared as follows: The thawed Li-heparin cynomolgous plasma was first homogenized, then centrifuged for 5 minutes. […] These solutions were used for the generation of a calibration curve.
(§4) For sample preparation, protein precipitation was carried out by addition of 300 μL of pre-cooled (0° C.) methanol to 100 μL of the plasma sample. 200 μL of the supernatant were transferred into a new well-plate and evaporated to dryness (under a gentle nitrogen stream at 35° C.). 100 μL of reconstitution solvent (Thermo digestion buffer, order number 60109-101, Thermo Fisher Scientific GmbH, Dreieich, Germany) were used to dissolve the residue. 20 μg of trypsin (order number V5111, Promega GmbH, Mannheim, Germany) were dissolved in 20 μL of 10 mM acetic acid. 2 μL of the trypsin solution were added to each cavity.
(§5) After 4 hours incubation at 37° C. (water bath), 5 μL of a 0.5 M TCEP solution were added to each cavity and incubated again for 5 min at 96° C. After the samples had cooled to room temperature, 3 μL acetonitrile were added. The eluates were transferred into vials. 10 μL were injected into the UPLC-MS system.
Blood samples were collected up to 168 h post dose, and plasma was generated. Plasma total CNP-38 concentrations were determined by quantification of the N-terminal signature peptide (sequence: […]) and C-terminal signature peptide (sequence: […]) after tryptic digestion as described in Materials and Methods.

[2] = 0.146 mg CNP-38 eq/kg; remark: listed apart in the source
Method: as §1, §2, §3, §4, §5
Male cynomolgus monkeys (2-4 years old, 3-5 kg) received either a single subcutaneous administration (n=3 animals) of compound 10f or a single subcutaneous (n=3 animals) administration of 11i at a dose of 0.146 mg CNP-38 eq/kg. Blood samples were collected up to 168 h post dose, and plasma was generated. Plasma levels of total CNP-38 content were analyzed as described in example 24. In order to analyze the plasma content of free CNP-38, the blood samples were acidified after withdrawal by adding 20 vol % of 0.5 M sodium citrate buffer pH 4 to stop further CNP-38 release from the conjugate. Free CNP-38 levels in plasma can e.g. be determined by ELISA using a CNP antibody that binds to the ring region of CNP, as described in the literature (U.S. Pat. No. 8,377,884 B2), or by LC-MS/MS.

Row | Substance | half life time of CNP-38 content ([1]; single intravenous injection, plasma total CNP-38) | CNP-38 tmax ([1]; single intravenous injection, plasma total CNP-38, earliest time point analyzed) | dose site reactions ([1]; single iv or sc dose) | tolerability of dose administrations ([1]; single iv or sc dose) | CNP-38 concentration at 168 h ([1]; single subcutaneous injection) | CNP-38 tmax ([1]; single subcutaneous injection, plasma total CNP-38) | bioavailability ([1]; subcutaneous vs intravenous) | dose site reactions ([2]; single sc) | tolerability of dose administrations ([2]; single sc) | Total CNP-38 plasma levels after 120 h ([2]; single sc, C-terminal peptide, below LOQ) | total CNP-38 tmax ([2]; single subcutaneous administration)
1 | Permanent Lys26 CNP-38 PEG4×10 kDa Conjugate [Compound 12g] | approx. 24 h | 0.25 h | No dose site reactions were observed | well tolerated | ca. 50 % of cmax | 48 h | ca. 50% | – | – | – | –
2 | Reversible Lys26 CNP-38 PEG2×20 kDa Conjugate [Compound 10f] | – | – | – | – | – | – | – | No dose site reactions were observed | well tolerated | < 100 ng/mL | 12 h

— patent US12544428B2, “Controlled-release CNP agonists with reduced side-effects” (ASCENDIS PHARMA GROWTH DISORDERS A/S, priority 2016, dated 2026)
